From patent US20220195015A1 (published 2022)
Where a chain is given by its changes, count along the chain named.

B1: C069 (antibody, V domains shown)
VH: QVQLVQSGAEVKKPGSSVNVSCKASGGTFSTYAIHWVRQAPGQGLEWMGGIIPLFHTANYAQKFQGRVTITADESTSTAYMELSSLRSEDTAMYYCAINTQWDLVPRWGRGTLVTVSS
VL: EIVLTQSPGTLSLAPGERATLSCRASQSVNSNYLAWYQQKPGQAPRLLIYGASSRATGIPDRFSGSGSGTDFTLTISRLEPEDFAVYYCQQYGFSLYSFGQGTKLEIK
B2: C064 (antibody, V domains shown)
VH: EVQLLESGGDLVQPGGSLRLSCAASGFTFSNYAMSWVRQAPGKGLEWVSAISGSGGNTYYADSVKGRFTISRDNSKNTLYLQMNSLRAEDTAVYYCAKAVHYGGNSDRRFSEPSAPFDYWGQGTLVTVSS
VL: QSALTQPASVSGSPGQSITISCTGTSSDVGSYNLVSWYQQHPGKAPKLMIYEGSKRPSGVSNRFSGSKSGNTASLTISGLQAEDEADYYCCSYAGSSTPYVFGTGTKVTVL
B3: C066 (antibody, V domains shown)
VH: EVQLVESGGGLIQPGGSLRLSCAASGLLVSRNYMTWVRQAPGKGLEWVSVIYSGGSTFYADSVRGRFTISRDNSKNTLYLQMDSLRAEDTAVYYCARDVGDYYGMDVWGQGTTVTVSS
VL: DIQLTQSPAFLSASVGDRVTITCRASQGMSNYLAWYQQKPGKAPNLLIYTASTLQSGVPSRFSGSGSGTEFTLTISSLQPEDFATYYCQLLNSYPQLTFGGGTKVEIK
B4: C035 (antibody, V domains shown)
VH: EVQLVESGGGLVQPGGSLRLSCAASGFIFSSYWMTWVRQAPGKGLEWVASIKYNGNERNYVDSVKGRFTISRDNARNSLFLQLNNLGAEDTAVYYCARQPESTIWYYFDYWGQGTLVTVSS
VL: SYELTQPPSVSVSPGQTARVTCSGHALPDQYTYWYQQRPGRAPVLVIYVNNQRPSGIPDRFSATTSGTTVTLTISGVQAEDEADYYCQSADSSGSYVVFGGGTKLTVL
B5: C051 (antibody, V domains shown)
VH: EVQLVESGGGLIQAGGSLRLSCAASGFGVRNNYMSWVRQAPGKGLEWVSVIYSGGTTYYADSVKGRFTISRDNSKNTVFLQMNSLRAEDTAVYYCAREGDVEGFSDLWSGYSRDRYYFDYWGQGTLVTVSS
VL: QSALTQPASVSGSPGQSITFSCTGTSSDVGGYNYVSWYQQYPGKAPKLLIYDVTNRPSGVSDRFSGSKSGNTASLTISGLQAEDEADYYCSSFTSSNTRVFGTGTKVTVL
B6: C050 (antibody, V domains shown)
VH: EVQLVESGGGLFQPGGSLRLSCAASGFSVRNNYVSWVRQAPGKGLEWVSVIYSGGTTYYADSVKGRFTISRDISENTLYLQMNSLRAEDTAVYYCAREGDVEGLHDFWSGYSRDRYYFDYWGQGTLVTVSS
VL: QSALTQPASVSGSPGQSIIISCTGTSGDIGGYNYVSWYQQHPGKAPKLMIYDVSFRPSGVSNRFSGSKSDNTASLTISGLQAEDEADYYCSSFTGNNTRVFGTGTKVTVL
B7: C053 (antibody, V domains shown)
VH: B6 VH with F12I, S28I, R30S, V34M, E46D, I73N, E75K, L104Y, F107S
VL: QSALTQPASVSGSPGQSITISCTGSSSDVGGYNFVSWYQQHPGRAPKLMIYDVSNRPSGVSNRFSGSKSGNTASLTISGLQVEDEADYYCSSYTNNNTRVFGTGTKVTVL
B8: C052 (antibody, V domains shown)
VH: B5 VH with Q13R, A14P, G28S, R30S, T68N, F79Y, F104Y, S105Y, L107F, T125A
VL: B7 VL with S25T, F34Y, R44K, V82A, S91N, N95S
B9: C054 (antibody, V domains shown)
VH: EVQLVESGGGLIQPGGSLRLSCAASGFTVSNNYMSWVRQAPGKGLEWVSVIYSGGSTYDADSVKGRFTISRDNSKNTLYLQMNSLSAEDTAVYYCAREGDVEGYYDFWSGYSRDRYYFDYWGQGTLVTVSS
VL: B5 VL with F20I, Y41H, L49M, T54S, D62N, F93Y, N97S, T98A
B10: C055 (antibody, V domains shown)
VH: EVQLVESGGGLVQPGGSLRLSCAASGFSVSTKYMTWVRQAPGKGLEWVSVLYSGRTDYYADSVKGRFTISRDSSKNILYLQMSSLRVEDTGFYYCARDSSEVRDHPGHPGRSVGAFDIWSQGTMVTVSS
VL: QSALTQPASVSGSPGQSIAISCTGTSNDVGSYTLVSWYQQYPGKAPKLLIFEDSQRSSGISNRFSGSKSGNTASLTISGLRGEDEADYYCCSYAGSHTFVFGGGTKVTVL
B11: C085 (antibody, V domains shown)
VH: QVQLQESGPGLVKPSETLSLTCTVSGDSMSSYFWTWIRQPPGKGLECIGYFYPSGSTNYNPSLKSRVTISIDTSKNQFSLKLSSVTAADTAVYYCARLKQQLVGFGWFDPWGQGTLVTVSS
VL: QSVLTQPPSVSGAPGQRVTISCTGSSSNIGADYDVHWYQQFPGTAPKVLIYANTNRPSGVPERFSGSKSGTSASLAITGLQAEDEADYYCQSYDHSLNWVFGGGTKLTVL
B12: C086 (antibody, V domains shown)
VH: B11 VH with M29I, S31T, T35A, K43R, Y50S, Y52F, N58Y, I71V, S83N, T115S
VL: B11 VL with S26I, D34E, Q39V, G66A, S96R, N98H
B13: C059 (antibody, V domains shown)
VH: QVQLVQSGAEVKKPGASIKVSCKASGYTFTDYSMHWVRQAPGQGLEWMGWINPNSGGTKYAQKFQGWVTMTRDMSITTVYMELTRLRSDATAVFYCARGPLFHKLVYDSWTGYHDGFDIWGQGTMVTVSS
VL: QSALTQPASVSGSPGQSITISCTGTSSDVGGYNYVSWYQHYPGKAPKLMIYEVTHRPSGVSNRFSGSKSGNTASLTISGLQAEDEADYYCSSSTNSSTWVFGGGTKMTVL
B14: C063 (antibody, V domains shown)
VH: EVQLVQSGAEVKKPGDSLKISCKASGYSFTRYWIGWVRQMPGKGLDWMGIIYPGDSDTRYSSSFQGQVTISADKSISTAYLQWSSLKASDTSLYYCVRRASSTNFEFWGQGTLVTVSS
VL: SYELTQPPSVSVAPGQTATITCGGNNIGSKTVHWYQQKPGQAPVVVVYDDSDRPSGIPERFSGSKSGSTATLTITRVEAGDEADYYCQVWDSTSDHYVFGTGTKVAVI
B15: C065 (antibody, V domains shown)
VH: QVQLQESGPGLVKPSQTLSLTCTVSGGSISSSNYYWSWIRQHPGKGLEWIGYIDYSGGTYYNPSLKSRVTISVDTSKNQFSLKLSSVTAADTAVYYCARVSTTVTTYLVGGFDIWGQGTMVTVSS
VL: IRMTQSPSSLSASVGDRVTITCQASQDITNYLNWYQQKPGKAPKLLLYDASNLETGVPSRFSGSGSGTDFTFTISSLQPEDIATYYCQQYDNLPWTFGQGTKVEIK
B16: C081 (antibody, V domains shown)
VH: EVQLVESGGGLVKPGGSLRLSCAASGFTFSSAWMSWVRQAPGKGLEWVGRIKTKTDGGTKDYAAPVKGRFTISRDDSKNTLYLQMNSLKTEDTAVYYCTTTNDYGDYSPAYWGQGTLVTVSS
VL: not shown
B17: C068 (antibody, V domains shown)
VH: QVQLVESGGGVVQPGRSLRLSCVASGFSFSTYGMHWVRQAPGKGLEWVALIWSDGSNKYYGDAAEGRFTISRDNSNNTLYLQMNNLRAEDTALYYCARDHSSSSFVYYYYMDVWGKGTTVTVSS
VL: QSALTQPRSVSGSPGQSVTISCTGTSSDIGGYNYVSWYQQHPDKAPKFIIFDVSKRPSGVPDRFSGSKSGNTASLTISGLQAEDEADYYCCSYAGPYPYVFGTGTKVTVL
B18: C083 (antibody, V domains shown)
VH: EVQLVESGGGLVKPGGSLRLSCAASGFTFSSYSMNWVRQAPGKGLEWVSSISSSTSYIYYADSVKGRFTISRDNAKNSLYLQMNSLRAEDTAVYYCARERYGDNWGQGTLVTVSS
VL: QLVLTQSPSASASLGASVKLTCTLSSGHSSYAIAWHQQQPEKGPRYLMSLNSDGSHSKGDGIPDRFSGSSSGAERYLTISSLQSEDEADYYCQTWGPWVFGGGTKLTVL
B19: C067 (antibody, V domains shown)
VH: VQLVESGGGVVQPGRSLRLSCAASGFSFRIFGMNWVRQAPGKGLDWVAGISHDGSDKYFADSVKGRFTISRDNSKNTLYLQMNSLRADDTAVYYCARDMEVDYYDRSGHYHVFHAFDIWGQGTMVTVSS
VL: DIVMTQSPDSLAVSLGARATINCKSSQSILYSSDNKSSLAWYQQKPGHPPKLLIYWASTRESGVPDRFSGSESGTDFTLTISNLQGEDVAVYYCQQYYSIPRSFGQGTKLEIK
B20: C062 (antibody, V domains shown)
VH: EVQLVESGGGLVKPGGSLRLTCAASGFTFSTYSMNWVRQAPGKGLEWVSSISSSSSYIYYADSVKGRFTISRDNAKNSLYLQMNSLRAEDTAVYYCARERGYYGGKTPPFLGGQGTLVTVSS
VL: NFMLTQPHSVSESPGKTVTISCTGSSGSIASNYVQWYQQRPGSAPTTVIYEDNQRPSGVPDRFSGSIDSSSNSASLTISGLKTEDEADYYCQSYDSSNYWVFGGGTKLTVL
B21: C522 (antibody, V domains shown)
VH: EVQLVESGGGLIQPGGSLRLSCAASEFIVSRNYMSWVRQAPGKGLEWVSVIYSGGSTFYADSVKGRFTISRDESKNTLYLQMNSLRAEDTAIYYCARDRGGGILDYWGQGTLVTVS
VL: DIQMTQSPSSLSASVGDRVTITCQASQDINIFLNWYQQKPGKAPKLLIYDASSLETGVPSRFSGSGSGTDFTFTISSLQPEDFATYYCQQYGNLPKYTFGQGTKLEIK
B22: C060 (antibody, V domains shown)
VH: EVQLVESGGGLVQPGGSQRLSCAASGFTVSSNYMSWIRQAPGKGLEWVSVIYSGGSAYYVDSVKGRFTISRDNSKNTLYLQMNSLRPEDTAVYYCARIANYMDVWGKGTTVTVSS
VL: EIVMTQSPATLSVSPGERATLSCRASQSVSSHLAWYQQKPGQAPRLLIYGASTRATGIPTRFSGSGSGTEFTLTISSLQSEDFAVYYCQQYNNWPPLTFGGGTKVEIK
B23: C057 (antibody, V domains shown)
VH: QVQLVQSGAEVKRPGASVKLSCKASGYIFTDYSIHWVRQAPGQGLEWMGWVNPNSGGGNSAQKFMDWVTMARDTSITTVYMELSRLRSDDTAVYYCARGPLFHKLVYDSWSGYHDGFDIWGQGTMVTVSS
VL: QSALTQPASVSGSPGQSITISCTGTSSDVGAYKFVSWYQQHPGKAPQLIIYEVSNRPSGVSNRFSGSKSGNTASLTISGLQAEDEADYYCSSYTNASTWVFGGGTELTVL
B24: C058 (antibody, V domains shown)
VH: QVQLVQSGAEVKKPGASVKVSCKASGYIFTDYSMHWVRQAPGQGLEWIGWVNPNSGGTNYAQKFQGWVTMARDTSITTVYMELSRLKSDDTAVYFCARGPLFHRLVYDFWSGYHDGFDMWGQGTMVTVSS
VL: B23 VL with A31G, Q47K, I49M, S91N, N95S, A96S, E106K

Tests used:
[1] = target: SARS-CoV-2 spike protein receptor binding domain (RBD) (SARS-CoV-2, UniProt P0DTC2 319-539); test: ELISA on coated RBD protein
[2] = target: SARS-CoV-2 receptor binding domain (RBD), wild type (SARS-CoV-2, UniProt P0DTC2 319-539); test: ELISA, RBD protein coated, mAb titrated

| Binder | EC50 [1] [ng/mL] | EC50 [2] [ng/mL] |
| --- | --- | --- |
| B1 | 381 |  |
| B2 | 363 |  |
| B3 | 4.2 |  |
| B4 |  | 15.2 |
| B5 | 1.65 |  |
| B6 | 1.93 |  |
| B7 | 1.53 |  |
| B8 | 1.23 |  |
| B9 | 1.58 |  |
| B10 | 1.25 |  |
| B11 | 2.38 |  |
| B12 | 3.01 |  |
| B13 | 1.88 |  |
| B14 | 414 |  |
| B15 | 29.1 |  |
| B16 | 12.5 |  |
| B17 | 5.46 |  |
| B18 | 25.1 |  |
| B19 | 6.98 |  |
| B20 | 4.69 |  |
| B21 |  | 0.93 |
| B22 | 43.5 |  |
| B23 | 2.31 |  |
| B24 | 2.28 |  |
